The values below come from patent publication US20120172295A1 (INDIANA UNIVERSITY RESEARCH AND TECHNOLOGY, published 2012).

Read-outs that look alike come from different tables or passages of the source. No end group written: not given here.

Usually EC50 stands for the concentration at which the effect is half-maximal. The low end stands for higher potency in that assay, the high end for lower potency in that assay.

Common to all, as to test: cell-based or functional assay
For test [1], the target named is T1, glucagon receptor (UniProt P47871 26-477, limits assumed).
For test [2], the target named is T2, GLP-1 receptor (UniProt P43220 24-463, limits assumed).
In test [3] the target is T1, glucagon receptor. The source holds these as a separate data set.
Test [4] has as its target T2, GLP-1 receptor. This is another data set of the same source.
Test [5] addresses T1, glucagon receptor. This is another data set of the same source.
Test [6] deals with T2, GLP-1 receptor. This is another data set of the same source.
Test [7] has as its target T1, glucagon receptor. The source holds these as a separate data set.
In test [8] the target is T2, GLP-1 receptor. The source holds these as a separate data set.
Test [9] concerns the target T1, glucagon receptor. This is another data set of the same source.
In test [10] the target is T2, GLP-1 receptor. The source holds these as a separate data set.

T1 sequence (P47871 26-477 limits assumed): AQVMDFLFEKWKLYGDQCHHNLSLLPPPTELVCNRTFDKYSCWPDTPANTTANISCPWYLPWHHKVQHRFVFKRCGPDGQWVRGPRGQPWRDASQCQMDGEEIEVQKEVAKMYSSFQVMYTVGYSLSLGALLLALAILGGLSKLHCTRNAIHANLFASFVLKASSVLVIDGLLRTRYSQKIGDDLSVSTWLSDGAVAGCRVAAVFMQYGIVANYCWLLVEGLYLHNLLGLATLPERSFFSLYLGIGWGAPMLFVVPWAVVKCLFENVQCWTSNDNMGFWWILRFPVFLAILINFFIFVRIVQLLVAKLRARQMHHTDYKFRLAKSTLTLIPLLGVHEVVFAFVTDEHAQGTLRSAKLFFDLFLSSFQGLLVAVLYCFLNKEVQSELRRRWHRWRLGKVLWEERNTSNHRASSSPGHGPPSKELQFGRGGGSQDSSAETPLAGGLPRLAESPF

B1: E16 K20-glucagon-NH2 (peptide)
peptide: HSQGTFTSDYSKYLDERRAKDFVQWLMNT-NH2
Turning to B1, the “Percent Potency Relative to Native Ligand” value amounted to 130% in [1], 41.5% in test [2], 130% in [7] and 41.5% in [8]. For the same molecule, the EC50 in test [3] was 0.18 nM; in test [4], 0.21 nM; in test [5], 0.18 nM; in test [6], 0.21 nM; in test [9] it was 0.203 nM; in test [10] it was 0.188 nM.
